{
  "source": "paper PMC12990809",
  "assay_in_all_cases": "pulldown",
  "settings_in_all_cases": "20 nM protein, 1.5 uM RNA pool; 20 mM HEPES pH 7.8, 70 mM KCl, 10 mM NaCl, 10% glycerol, 2 mM DTT, 0.1 ug/uL BSA; 30 min, 4 C",
  "key": {"[1]": {"biological_target": "T1, PK23225.1 P17S (Cannabis sativa) (UniProt A0A7J6EWR7)", "T1 sequence": "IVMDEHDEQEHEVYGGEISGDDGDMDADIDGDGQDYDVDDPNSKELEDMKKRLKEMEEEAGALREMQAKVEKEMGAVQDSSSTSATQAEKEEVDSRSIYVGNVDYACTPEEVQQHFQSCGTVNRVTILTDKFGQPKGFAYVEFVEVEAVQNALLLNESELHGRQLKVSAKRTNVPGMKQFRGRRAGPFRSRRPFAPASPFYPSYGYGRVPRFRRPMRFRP"}, "[2]": {"biological_target": "T2, PFI1175c (Plasmodium falciparum) (UniProt Q8I2R8)", "T2 sequence": "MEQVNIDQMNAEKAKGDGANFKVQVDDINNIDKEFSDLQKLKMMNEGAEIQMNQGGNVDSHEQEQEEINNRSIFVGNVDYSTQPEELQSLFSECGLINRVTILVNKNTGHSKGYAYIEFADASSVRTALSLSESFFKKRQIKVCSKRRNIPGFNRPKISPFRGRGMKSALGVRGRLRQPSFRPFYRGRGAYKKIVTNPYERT"}, "[3]": {"biological_target": "T3, CBG15837 R479I (Caenorhabditis briggsae) (UniProt A8XMX3)", "T3 sequence": "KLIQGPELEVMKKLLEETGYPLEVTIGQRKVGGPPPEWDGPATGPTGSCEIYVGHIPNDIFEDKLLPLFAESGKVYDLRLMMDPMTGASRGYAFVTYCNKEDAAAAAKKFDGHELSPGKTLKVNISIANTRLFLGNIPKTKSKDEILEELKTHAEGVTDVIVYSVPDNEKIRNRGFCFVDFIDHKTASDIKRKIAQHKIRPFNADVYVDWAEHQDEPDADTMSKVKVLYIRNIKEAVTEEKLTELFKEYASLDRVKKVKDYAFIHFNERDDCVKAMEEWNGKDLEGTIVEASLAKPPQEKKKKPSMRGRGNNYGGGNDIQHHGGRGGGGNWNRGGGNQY"}, "[4]": {"system": "T4, PK15111.1 (Cannabis sativa)", "T4 sequence": "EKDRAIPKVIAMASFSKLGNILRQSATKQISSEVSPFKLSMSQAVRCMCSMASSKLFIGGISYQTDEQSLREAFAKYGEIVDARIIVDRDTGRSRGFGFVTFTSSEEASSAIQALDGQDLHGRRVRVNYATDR"}, "[5]": {"biological_target": "T5, PK04894.1 Y197N (Cannabis sativa) (UniProt A0A803PQ48)", "T5 sequence": "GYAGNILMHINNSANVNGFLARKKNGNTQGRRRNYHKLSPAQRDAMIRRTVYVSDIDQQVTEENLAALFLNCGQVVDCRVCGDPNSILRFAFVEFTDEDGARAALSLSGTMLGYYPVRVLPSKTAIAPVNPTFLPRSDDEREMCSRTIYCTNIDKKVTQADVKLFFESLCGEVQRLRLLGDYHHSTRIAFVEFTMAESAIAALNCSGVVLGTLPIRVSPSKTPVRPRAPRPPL"}, "[6]": {"system": "T6, PK23842.1 (Cannabis sativa)", "T6 sequence": "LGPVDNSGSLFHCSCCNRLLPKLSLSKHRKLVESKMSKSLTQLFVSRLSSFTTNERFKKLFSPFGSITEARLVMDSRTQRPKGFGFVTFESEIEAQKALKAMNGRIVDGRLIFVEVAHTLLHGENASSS"}, "[7]": {"biological_target": "T7, PK27686.1 K290R (Cannabis sativa) (UniProt A0A7J6ICA3)", "T7 sequence": "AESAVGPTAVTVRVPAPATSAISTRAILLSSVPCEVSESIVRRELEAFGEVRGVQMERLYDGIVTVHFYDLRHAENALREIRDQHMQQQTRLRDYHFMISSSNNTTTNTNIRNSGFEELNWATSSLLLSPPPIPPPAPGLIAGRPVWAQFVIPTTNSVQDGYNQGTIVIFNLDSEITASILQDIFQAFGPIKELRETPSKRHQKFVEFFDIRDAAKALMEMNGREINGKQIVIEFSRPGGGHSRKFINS"}, "[8]": {"biological_target": "T8, SCL30 (Arabidopsis thaliana) (UniProt Q8L3X8)", "T8 sequence": "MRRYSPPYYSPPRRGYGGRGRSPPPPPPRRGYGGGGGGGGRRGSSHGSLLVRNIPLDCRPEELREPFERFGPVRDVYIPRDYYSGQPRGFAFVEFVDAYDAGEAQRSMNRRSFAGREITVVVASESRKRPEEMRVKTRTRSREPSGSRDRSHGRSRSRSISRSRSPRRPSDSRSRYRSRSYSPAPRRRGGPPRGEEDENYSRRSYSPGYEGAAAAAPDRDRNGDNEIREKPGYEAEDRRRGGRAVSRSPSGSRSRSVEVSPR"}, "[9]": {"biological_target": "T9, RBM47 ins277_K (Meleagris gallopavo) (UniProt G1NI04)", "T9 sequence": "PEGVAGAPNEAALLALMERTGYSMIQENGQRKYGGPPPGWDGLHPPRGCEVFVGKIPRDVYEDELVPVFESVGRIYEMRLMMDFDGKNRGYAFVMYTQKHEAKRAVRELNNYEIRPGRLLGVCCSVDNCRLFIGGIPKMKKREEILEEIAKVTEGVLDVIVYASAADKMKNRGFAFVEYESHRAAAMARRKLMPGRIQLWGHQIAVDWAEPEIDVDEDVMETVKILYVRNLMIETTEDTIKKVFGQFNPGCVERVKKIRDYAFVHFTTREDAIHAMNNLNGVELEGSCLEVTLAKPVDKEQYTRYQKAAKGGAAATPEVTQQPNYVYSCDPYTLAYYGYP"}, "[10]": {"biological_target": "T10, PK20300.1 (Cannabis sativa) (UniProt A0A803QWA0)", "T10 sequence": "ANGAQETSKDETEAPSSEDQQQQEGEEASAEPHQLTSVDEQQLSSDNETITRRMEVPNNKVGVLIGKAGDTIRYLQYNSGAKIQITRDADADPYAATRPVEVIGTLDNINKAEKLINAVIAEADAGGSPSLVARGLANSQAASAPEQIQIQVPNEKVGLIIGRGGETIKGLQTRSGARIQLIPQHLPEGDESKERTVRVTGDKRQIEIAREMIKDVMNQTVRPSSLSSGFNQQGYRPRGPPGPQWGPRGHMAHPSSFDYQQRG"}},
  "data": [
    {"sequence": "AAAAAGA [RNAcompete motif RNCMPT00370]", "values": [
      {"measurement": "binding signal (z-score (mean of top ten 7-mers))", "setting": "[1]", "value": 12}
    ]},
    {"sequence": "AAAAAGA [RNAcompete motif RNCMPT00380]", "values": [
      {"measurement": "binding signal (z-score (mean of top ten 7-mers))", "setting": "[2]", "value": 9.25}
    ]},
    {"sequence": "AAAAAUUU [RNAcompete motif RNCMPT00344]", "values": [
      {"measurement": "binding signal (z-score (mean of top ten 7-mers))", "setting": "[3]", "value": 9.1}
    ]},
    {"sequence": "AAGUAGA [RNAcompete motif RNCMPT00368]", "values": [
      {"measurement": "binding signal (z-score (mean of top ten 7-mers))", "setting": "[4]", "value": 6.73}
    ]},
    {"sequence": "AAUAAG [RNAcompete motif RNCMPT00346]", "values": [
      {"measurement": "binding signal (z-score (mean of top ten 7-mers))", "setting": "[5]", "value": 15.1}
    ]},
    {"sequence": "AAUCCA [RNAcompete motif RNCMPT00372]", "values": [
      {"measurement": "binding signal (z-score (mean of top ten 7-mers))", "setting": "[6]", "value": 6.16}
    ]},
    {"sequence": "AAUUUU [RNAcompete motif RNCMPT00349]", "values": [
      {"measurement": "binding signal (z-score (mean of top ten 7-mers))", "setting": "[7]", "value": 14.6}
    ]},
    {"sequence": "AGAAGA [RNAcompete motif RNCMPT00382]", "values": [
      {"measurement": "binding signal (z-score (mean of top ten 7-mers))", "setting": "[8]", "value": 7.94}
    ]},
    {"sequence": "AGAUGA [RNAcompete motif RNCMPT00394]", "values": [
      {"measurement": "binding signal (z-score (mean of top ten 7-mers))", "setting": "[9]", "value": 8.98}
    ]},
    {"sequence": "AGCAUGA [RNAcompete motif RNCMPT00360]", "values": [
      {"measurement": "binding signal (z-score (mean of top ten 7-mers))", "setting": "[10]", "value": 11.4}
    ]}
  ]
}
